Legend:
S100A4 [1] = target: T1, S100A4 (Homo sapiens, UniProt P26447); assay: Quin-2 fluorescence, Ca^2+ dissociation from S100A4 in the presence of target peptides; assay type: binding
T1 construct: We used full-length S100A4 for this analysis; made in house; host or cells: Escherichia coli BL21(DE3)
Experimental: Ca^2+ dissociation measurements for wild-type S100A4, using Quin-2 as described above, were repeated as a control for the effect of target peptides on this process. On mixing 10 μM S100A4 in the presence of Ca^2+ with 100 μM Quin-2, the observed profile was fitted to a single exponential with kobs = 17 s^− 1 (Fig. 5a; cf. k− 1 in Scheme 1).
Fig. 5 Dissociation of Ca^2+ from S100A4 in the absence and in the presence of target peptides monitored using Quin-2 fluorescence. (a) Mixed with 100 μM Quin-2 was 10 μM S100A4 + 50 μM Ca^2+ (stopped-flow reaction chamber concentrations). A superposed fit to a single exponential yields kobs = 17 s^− 1. […] (d) As in (a), but with 2.5 μM M200 premixed with 5 μM S100A4. A biphasic exponential fit yielded rate constants of 13 s^− 1 (A = 26%) and 0.30 s^− 1 (A = 74%). […] Experiments were carried out in either 20 mM NaCl, 20 mM Tris, 1 mM DTT, and 100 μM Ca^2+ at pH 7.5 and 20 °C (a and b; cf. Malashkevich et al.[17]), or 100 mM NaCl, 10 mM Hepes, and 100 μM Ca^2+ at pH 7.5 and 20 °C (c and d). […] Rate constants were unaffected by the inclusion of 1 mM Mg^2+.
Stopped-flow measurements were carried out using an SX18-MV apparatus (Applied Photophysics Ltd., Leatherhead, UK) with a dead time of 1.5 ms.[40] Records were generally captured on a logarithmic time base. Absorption (turbidity) measurements were usually recorded using a 10-mm pathlength, while fluorescence was recorded with a 2-mm pathlength for excitation and emission. The stated concentrations of components refer to the reaction chamber after mixing, unless otherwise indicated. Tyrosine fluorescence was excited at 280 nm, and the emission was collected through a UG11 bandpass filter plus a 305-nm longpass filter.[18] Fluorescein fluorescence was excited at 480 nm, and the emission was detected through a 515-nm longpass filter. Quin-2 fluorescence was measured by excitation at 336 nm, and emission was collected with a 455-nm longpass filter. For simultaneous recording of light scatter, a second channel was monitored through a UG11 filter. Rate constants were obtained by fitting to single-exponential or double-exponential functions using Kaleidagraph (Synergy Software) or Applied Photophysics Pro-Data software. Modeling of kinetic schemes was performed using Berkeley Madonna software.

S100A4 [2] = target: T1, S100A4; assay: Ca^2+ dependence of M200 turbidity in the presence of S100A4; assay type: biochemical; details: 5 μM M200 + S100A4; 100 mM NaCl, 20 mM Hepes, 1 mM Mg^2+, 1 mM EGTA, 1 μM Fura-2; read-out: apparent Kd for Ca^2+ binding
From the text: The decrease in fluorescence, […]
that F-M16N binding was slightly faster.
The equilibrium constant (K5) for dissociation of the M200.S100A4.Ca2+ complex The value of K5 (scheme 2) was estimated from two independent experiments. From the competition […]
inhibition in the amplitude of the turbidity change arising from 5 M M200 at saturating Ca2+ concentrations. Under these conditions the free S100A4.Ca2+ concentration is ~ 0.06 M based on K2 = 3 […]
concentration will remain close to its critical concentration (K4 = 0.1 M), so that K5 = 0.1 * 0.06 / 5 ≈ 0.001 M, which represents the binding of S100A4.Ca2+ to free M200.
A second estimate was calculated from the apparent Ca2+ binding constant observed in the turbidity assay
(Fig. S6c). 5 M M200 in the presence of S100A4 and 1 mM EGTA gave a high turbidity in 0.1 M NaCl buffer, as S100A4 binds weakly under these conditions. Addition of aliquots of Ca2+ caused filament dissociation as the free Ca2+ rose, to give an apparent binding constant for Ca2+ of 0.14 M (Fig. S6c). At […]
contained 100 mM NaCl, 20 mM Hepes, 1 mM Mg2+, 1 mM EGTA and 1 µM Fura-2. Ca2+ was added in l aliquots and the turbidity measured (using the 10 mm path length). The free Ca2+ was calculated from the ratio of the Fura-2 340 nm to 362 nm excitation peaks, assuming a Kd of 0.224 M 1, measured between each addition of Ca2+ (using the 2 mm path length for excitation).

[3] = 2.5 μM M200 premixed with 5 μM S100A4

T1 sequence (P26447 whole entry): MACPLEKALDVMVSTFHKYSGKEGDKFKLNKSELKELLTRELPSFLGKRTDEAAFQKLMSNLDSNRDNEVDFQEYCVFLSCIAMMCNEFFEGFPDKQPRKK

B1: M200: His-tagged human NM-MHC IIA residues Q1761-E1960, V1913I substitution (protein, UniProt P35579 1761-1960, looked up, variant V1913I)
chain: QINTDLNLERSHAQKNENARQQLERQNKELKVKLQEMEGTVKSKYKASITALEAKIAQLEEQLDNETKERQAACKQVRRTEKKLKDVLLQVDDERRNAEQYKDQADKASTRLKQLKRQLEEAEEEAQRANASRRKLQRELEDATETADAMNREISSLKNKLRRGDLPFVVPRRMARKGAGDGSDEEVDGKADGAEAKPAE
modifications: His tag
notes: His-tagged human NM-MHC IIA residues Q1761-E1960, V1913I substitution
For B1, the fast-phase amplitude (S100A4 [1]; [3]) was 26%, the slow-phase amplitude (S100A4 [1]; [3]) was 74% and the slow-phase rate constant (S100A4 [1]; 2.5 μM M200 premixed with 5 μM S100A4, 100 mM NaCl) was 0.30 s^− 1. The fast-phase rate constant (S100A4 [1]; 2.5 μM M200 premixed with 5 μM S100A4, 100 mM NaCl, 10 mM Hepes, 100 μM Ca^2+, pH 7.5, 20 °C) was 13 s^− 1, the “slower release of Ca^2+” value (S100A4 [1]; in presence of coiled-coil fragments) was 0.3–0.5 s^− 1 and the “Ca^2+ dissociation rate constant from complex (k− 3), comparison” value (S100A4 [1]; peptide–S100A4–Ca^2+ complex) was 0.3 s^− 1. For the same molecule, the Kd (S100A4 [2]) was 140 nM.

Reference: article PMC3025356, “Mechanism of the Ca^2+-Dependent Interaction between S100A4 and Tail Fragments of Nonmuscle Myosin Heavy Chain IIA” (Journal of Molecular Biology, 2011)
